B1: Interferon alpha/beta receptor 1 (Homo sapiens), P17181 (parent)
chain: MMVVLLGATTLVLVAVAPWVLSAAAGGKNLKSPQKVEVDIIDDNFILRWNRSDESVGNVTFSFDYQKTGMDNWIKLSGCQNITSTKCNFSSLKLNVYEEIKLRIRAEKENTSSWYEVDSFTPFRKAQIGPPEVHLEAEDKAIVIHISPGTKDSVMWALDGLSFTYSLVIWKNSSGVEERIENIYSRHKIYKLSPETTYCLKVKAALLTSWKIGVYSPVHCIKTTVENELPPPENIEVSVQNQNYVLKWDYTYANMTFQVQWLHAFLKRNPGNHLYKWKQIPDCENVKTTQCVFPQNVFQKGIYLLRVQASDGNNTSFWSEEIKFDTEIQAFLLPPVFNIRSLSDSFHIYIGAPKQSGNTPVIQDYPLIYEIIFWENTSNAERKIIEKKTDVTVPNLKPLTVYCVKARAHTMDEKLNKSSVFSDAVCEKTKPGNTSKIWLIVGICIALFALPFVIYAAKVFLRCINYVFFPSLKPSSSIDEYFSEQPLKNLLLSTSEEQIEKCFIIENISTIATVEETNQTDEDHKKYSSQTSQDSGNYSNEDESESKTSEELQQDFV
B2: Interferon alpha/beta receptor 1 (Mus musculus), P33896 (parent)
chain: MLAVVGAAALVLVAGAPWVLPSAAGGENLKPPENIDVYIIDDNYTLKWSSHGESMGSVTFSAEYRTKDEAKWLKVPECQHTTTTKCEFSLLDTNVYIKTQFRVRAEEGNSTSSWNEVDPFIPFYTAHMSPPEVRLEAEDKAILVHISPPGQDGNMWALEKPSFSYTIRIWQKSSSDKKTINSTYYVEKIPELLPETTYCLEVKAIHPSLKKHSNYSTVQCISTTVANKMPVPGNLQVDAQGKSYVLKWDYIASADVLFRAQWLPGYSKSSSGSRSDKWKPIPTCANVQTTHCVFSQDTVYTGTFFLHVQASEGNHTSFWSEEKFIDSQKHILPPPPVITVTAMSDTLLVYVNCQDSTCDGLNYEIIFWENTSNTKISMEKDGPEFTLKNLQPLTVYCVQARVLFRALLNKTSNFSEKLCEKTRPGSFSTIWIITGLGVVFFSVMVLYALRSVWKYLCHVCFPPLKPPRSIDEFFSEPPSKNLVLLTAEEHTERCFIIENTDTVAVEVKHAPEEDLRKYSSQTSQDSGNYSNEEEESVGTESGQAVLSKAPCGGPCSVPSPPGTLEDGTCFLGNEKYLQSPALRTEPALLC

Variants of: B1
Settings: with fbw1b_human FBXW11, Q9UKB1
fbw1b_human FBXW11, Q9UKB1, sequence (Q9UKB1 whole entry): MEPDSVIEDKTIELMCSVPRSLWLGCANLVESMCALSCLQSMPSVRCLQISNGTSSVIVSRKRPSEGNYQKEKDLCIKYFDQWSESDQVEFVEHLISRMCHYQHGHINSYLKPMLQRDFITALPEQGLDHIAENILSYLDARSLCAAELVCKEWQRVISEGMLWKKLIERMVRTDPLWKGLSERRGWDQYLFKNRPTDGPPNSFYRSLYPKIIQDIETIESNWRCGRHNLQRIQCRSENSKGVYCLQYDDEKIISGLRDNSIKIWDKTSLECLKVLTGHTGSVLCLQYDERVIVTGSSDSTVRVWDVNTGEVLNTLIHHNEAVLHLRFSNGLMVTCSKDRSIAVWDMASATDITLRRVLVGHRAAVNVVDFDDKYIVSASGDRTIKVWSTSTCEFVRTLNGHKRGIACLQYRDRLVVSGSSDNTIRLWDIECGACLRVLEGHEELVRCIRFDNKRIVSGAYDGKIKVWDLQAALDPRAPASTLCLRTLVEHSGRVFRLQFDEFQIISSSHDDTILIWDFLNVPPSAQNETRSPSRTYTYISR

effect of a mutation on the interaction | Variant
disrupting interaction | S535A

Variants of: B1
Settings: with fbw1b_human FBXW11, Q9UKB1
Remark: another data set of the same source

effect of a mutation on the interaction | Variant
decreasing interaction | S535A

Variants of: B2
Settings: with fbw1b_human FBXW11, Q9UKB1

effect of a mutation on the interaction | Variant
disrupting interaction | S526A
